Experimental data taken from publication PMC4523612 (The Journal of Cell Biology, 2015).

Experiments:
Eg5 [1] = biological target: Eg5 (UniProt P52732)
Eg5 [2] = biological target: T1, Eg5 (UniProt P52732 1-1056)
T1 sequence: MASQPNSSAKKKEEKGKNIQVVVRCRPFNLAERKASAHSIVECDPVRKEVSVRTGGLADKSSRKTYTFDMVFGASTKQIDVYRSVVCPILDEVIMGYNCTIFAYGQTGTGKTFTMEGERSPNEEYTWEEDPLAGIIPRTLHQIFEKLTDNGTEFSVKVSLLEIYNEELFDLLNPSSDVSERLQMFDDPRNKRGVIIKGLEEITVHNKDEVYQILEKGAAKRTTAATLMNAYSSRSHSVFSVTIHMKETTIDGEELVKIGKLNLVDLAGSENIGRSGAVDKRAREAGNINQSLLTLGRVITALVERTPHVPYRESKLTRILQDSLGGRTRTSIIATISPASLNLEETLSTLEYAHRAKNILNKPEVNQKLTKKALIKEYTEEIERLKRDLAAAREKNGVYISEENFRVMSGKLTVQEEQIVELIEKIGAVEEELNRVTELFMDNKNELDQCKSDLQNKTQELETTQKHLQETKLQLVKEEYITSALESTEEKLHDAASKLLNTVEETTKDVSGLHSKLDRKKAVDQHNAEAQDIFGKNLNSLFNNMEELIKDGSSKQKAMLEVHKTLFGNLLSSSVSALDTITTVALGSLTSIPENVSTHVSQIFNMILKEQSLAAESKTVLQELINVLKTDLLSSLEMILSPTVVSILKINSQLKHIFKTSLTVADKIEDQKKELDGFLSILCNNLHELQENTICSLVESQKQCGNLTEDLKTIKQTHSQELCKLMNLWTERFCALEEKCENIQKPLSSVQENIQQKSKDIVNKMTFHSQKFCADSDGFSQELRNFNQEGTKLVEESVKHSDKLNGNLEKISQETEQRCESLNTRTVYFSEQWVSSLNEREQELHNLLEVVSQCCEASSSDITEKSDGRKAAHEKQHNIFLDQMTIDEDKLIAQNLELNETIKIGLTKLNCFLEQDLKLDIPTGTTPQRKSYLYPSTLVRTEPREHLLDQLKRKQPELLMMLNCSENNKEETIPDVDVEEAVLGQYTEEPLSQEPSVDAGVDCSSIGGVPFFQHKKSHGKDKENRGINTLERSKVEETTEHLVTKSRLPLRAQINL

GFP-TPX2-2D (from UniProt Q9ULW0 1-747) (natural protein)
binding relative to WT (% less than WT) (Eg5 [1]): 41

B1: GFP-TPX2-2A (S121/125A) (natural protein)
chain: MSQVKSSYSYDAPSDFINFSSLDDEGDTQNIDSWFEEKANLENKLLGKNGTGGLFQGKTPLRKANLQQAIVTPLKPVDNTYYKEAEKENLVEQSIPSNACSSLEVEAAISRKTPAQPQRRALRLAAQKDLEQKEKHHVKMKAKRCATPVIIDEILPSKKMKVSNNKKKPEEEGSAHQDTAEKNASSPEKAKGRHTVPCMPPAKQKFLKSTEEQELEKSMKMQQEVVEMRKKNEEFKKLALAGIGQPVKKSVSQVTKSVDFHFRTDERIKQHPKNQEEYKEVNFTSELRKHPSSPARVTKGCTIVKPFNLSQGKKRTFDETVSTYVPLAQQVEDFHKRTPNRYHLRSKKDDINLLPSKSSVTKICRDPQTPVLQTKHRARAVTCKSTAELEAEELEKLQQYKFKARELDPRILEGGPILPKKPPVKPPTEPIGFDLEIEKRIQERESKKKTEDEHFEFHSRPCPTKILEDVVGVPEKKVLPITVPKSPAFALKNRIRMPTKEDEEEDEPVVIKAQPVPHYGVPFKPQIPEARTVEICPFSFDSRDKERQLQKEKKIKELQKGEVPKFKALPLPHFDTINLPEKKVKNVTQIEPFCLETDRRGALKAQTWKHQLEEELRQQKEAACFKARPNTVISQEPFVPKKEKKSVAEGLSGSLVQEPFQLATEKRAKERQELEKRMAEVEAQKAQQLEEARLQEEEQKKEELARLRRELVHKANPIRKYQGLEIKSSDQPLTVPVSPKFSTRFHC
binding relative to WT (Eg5 [2]): 41 % less than WT
